Legend:
HLA-A2 [1] = assay: functional competition vs tyrosinase 368-376 on T2 cells; relative to SEQ ID NO: 17
HLA-A2 [2] = assay: functional competition vs tyrosinase 368-376 on T2 cells, readout lysis by CTL LAU 156/34; 50% inhibition
HLA-A2 [3] = assay: functional competition vs tyrosinase 368-376 on T2 cells, readout lysis by CTL LAU 156/34; relative to SEQ ID NO: 1

Binder: AAAPAIFYA (modifications not checked) [… (SEQ ID NO: 4)]
- Relative binding (HLA-A2 [1]): 9
- IC50 (HLA-A2 [2]): 22 nM
- Relative binding (HLA-A2 [3]): 0.9

Binder: AAAPKAFYA (modifications not checked) [… (SEQ ID NO: 5)]
- Relative binding (HLA-A2 [1]): 1
- IC50 (HLA-A2 [2]): 200 nM
- Relative binding (HLA-A2 [3]): 0.1

Binder: AAAPKIFYA (modifications not checked) [… (SEQ ID NO: 1)]
- Relative binding (HLA-A2 [1]): 10
- IC50 (HLA-A2 [2]): 20 nM
- Relative binding (HLA-A2 [3]): 1

Binder: AAGPKIFYA (modifications not checked) [… (SEQ ID NO: 2)]
- Relative binding (HLA-A2 [1]): 0.7
- IC50 (HLA-A2 [2]): 286 nM
- Relative binding (HLA-A2 [3]): 0.07

Binder: AAAAKIFYA (modifications not checked) [… (SEQ ID NO: 3)]
- Relative binding (HLA-A2 [1]): 1.5
- IC50 (HLA-A2 [2]): 133 nM
- Relative binding (HLA-A2 [3]): 0.16

From US20070105779A1, “Isolated, ssx-2 and ssx-2 related peptides useful as hla binders and ctl epitopes, and uses thereof” (priority 2002, published 2007)
